From the supplement of paper PMC9732359
± gives the uncertainty stated by the source.

Assay: protein stability index of a GFP-peptide fusion (yeast GPS) (PSI 1-4); higher = more stable; sorted into four equal gates, so the index is relative within each strain
How it was run: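 Mid-log yeast cultures in leucine-free medium, carrying a pooled plasmid library, were sorted into four equal gates by their GFP/Cherry fluorescence ratio. Each plasmid expressed Cherry along with GFP fused upstream of a tiled 17-residue yeast protein peptide. Plasmids recovered from each gate were PCR-amplified and Illumina-sequenced, with reads assigned to strains by barcodes. The protein stability index was obtained by summing each gate's read frequency weighted by its gate number.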

Sequence | protein stability index (doa10∆) | protein stability index (pdr5∆) | protein stability index (san1∆) | protein stability index (ubr1∆)
TVRKSIACVLTVINEQQ [RPL35A] | 1.62 ± 0.077 | 2.07 ± 0.077 | 2.21 ± 0.079 | 2.11 ± 0.063
VKIVDKDGIRQVDDFQA [PRE1] | 2.86 ± 0.14 | 2.9 ± 0.11 |  | 
RAPKANGALDPKMGVSS [RPO31] | 3.12 ± 0.23 | 3.11 ± 0.16 | 3.05 ± 0.093 | 3.04 ± 0.08
LLRNLESKMRQQEAKYR [YDL088C/ASM4] | 1.22 ± 0.058 | 1.61 ± 0.072 | 1.39 ± 0.14 | 1.36 ± 0.059
ALRLSMEEEQQRQERLR [RPN10] | 3.33 ± 0.16 | 3.06 ± 0.26 | 3.36 ± 0.065 | 3.38 ± 0.11
SNIIHDESDTISFRSNL [SNF6] | 2.79 ± 0.1 | 2.68 ± 0.079 | 2.85 ± 0.098 | 2.7 ± 0.067
MMQDPQMQQMAKQFGMG [SRP54] | 3.15 ± 0.039 | 2.93 ± 0.043 | 3.03 ± 0.031 | 2.75 ± 0.027
LGYKAKQGFVIYRVRVR [RPL15A] | 2.22 ± 0.1 | 2.04 ± 0.11 | 2.06 ± 0.15 | 1.84 ± 0.11
VVTRSKEAFEEEIKQSA [SMC1] | 3.05 ± 0.14 | 3.07 ± 0.13 | 3.11 ± 0.25 | 3.1 ± 0.089
QDKIELSEEETLLVIRR [SNF2] | 2.38 ± 0.11 | 2.27 ± 0.11 | 2.92 ± 0.072 | 2.98 ± 0.089
TEAAFTKLDQVWGSETV [RPL4A] | 1.84 ± 0.18 | 1.87 ± 0.11 | 3.07 ± 0.067 | 2.15 ± 0.14
FDSLRNFIVHSPMLKRI [GRR1] | 2.89 ± 0.084 | 2.47 ± 0.079 | 2.8 ± 0.074 | 2.64 ± 0.076
PSLKFKPKAVARKSKEE [RPC53] | 2.82 ± 0.12 | 2.65 ± 0.086 | 2.43 ± 0.07 | 2.88 ± 0.077
PELAMALRLSMEEEQQR [RPN10] | 3.15 ± 0.14 | 3.09 ± 0.061 |  | 3.14 ± 0.08
CVRVQLIKNGKKVTAFV [RPS23A] | 2.59 ± 0.085 | 2.66 ± 0.093 | 3.16 ± 0.13 | 3.13 ± 0.088
YFGENSSISWKNIAQCL [YJL039C/NUP192] | 1.95 ± 0.084 | 2.57 ± 0.066 | 1.93 ± 0.064 | 2.11 ± 0.062
FMAFINACAKYGRDDME [ISW2] | 2.77 ± 0.2 |  |  | 
IWLKDFIAVGQILPESQ [SIR3] |  | 2.37 ± 0.28 |  | 
PGIMLRQMNLVITLLNN [YCS4] | 1.2 ± 0.06 | 1.11 ± 0.042 | 1.14 ± 0.13 | 1.19 ± 0.041
EEIPINSSEQESDYEPN [SIR3] | 2.82 ± 0.068 | 3.15 ± 0.067 | 3 ± 0.045 | 2.77 ± 0.048
LPPNWKYESATASALVN [RPS13] | 2.21 ± 0.081 | 2.59 ± 0.095 | 2.69 ± 0.064 | 2.12 ± 0.049
GQSEASLLNLLNISPFT [RPP0] | 2.59 ± 0.066 | 2.1 ± 0.057 | 2.29 ± 0.085 | 2.66 ± 0.058
DNVDFILSNVDLAMANS [RPB3] | 3.07 ± 0.057 | 3.08 ± 0.054 | 3.12 ± 0.064 | 2.97 ± 0.05
VSFDFNGVPGQALDAVR [MED8] | 3.1 ± 0.077 | 3.36 ± 0.079 | 3.32 ± 0.079 | 3.36 ± 0.061
KLYQTEPSGIYSSWSAQ [PRE6] | 2.63 ± 0.084 | 2.15 ± 0.11 | 2.87 ± 0.11 | 1.46 ± 0.054
NNQSKEKADYEDEMMHE [RPN12] | 2.63 ± 0.074 | 2.7 ± 0.06 | 2.67 ± 0.095 | 2.53 ± 0.052
AHSLSPKDYIKKLLEVH [CDC53] | 1.7 ± 0.042 | 2.23 ± 0.064 | 2.56 ± 0.056 | 1.77 ± 0.042
NENNNNSSEKNNNNNNN [MED2] | 2.91 ± 0.066 | 2.96 ± 0.065 | 3.04 ± 0.071 | 2.95 ± 0.07

Sequence | protein stability index (doa10∆) | protein stability index (pdr5∆) | protein stability index (san1∆) | protein stability index (ubr1∆)
VVDFTSLPEELKKRYDL [YMR129W/POM152] | 2.14 ± 0.21 | 2.33 ± 0.15 | 2.96 ± 0.088 | 2.62 ± 0.12
SFPILDQCVGQVGLNFE [YMR129W/POM152] | 3.07 ± 0.083 | 2.96 ± 0.11 | 3.1 ± 0.056 | 3.02 ± 0.07
FLQRVRVWEYRQKNVIH [RPL15A] | 1.77 ± 0.24 | 1.72 ± 0.085 |  | 2.02 ± 0.19
LAAERKVTSTLLEQDTS [PRE9] | 2.46 ± 0.066 | 2.58 ± 0.082 | 2.65 ± 0.082 | 2.36 ± 0.089
DGGLFTLFVRDQDSAVV [QCR2] | 3.04 ± 0.11 | 3.16 ± 0.078 | 3.25 ± 0.059 | 3.32 ± 0.057
RPPVKAILQEKILSILN [ECM29] | 1.46 ± 0.058 | 1.83 ± 0.084 | 1.71 ± 0.14 | 2 ± 0.11
TLESLENLVVADLESFA [COR1] | 2.47 ± 0.066 | 2.67 ± 0.063 | 2.44 ± 0.065 | 2.3 ± 0.043
CVKAIEALFQSRPDILS [YCG1] | 3.19 ± 0.083 | 2.47 ± 0.085 | 3.03 ± 0.082 | 3.05 ± 0.087
MKQPYVFVKKHHELIKV [SSN2] | 1.33 ± 0.072 | 1.27 ± 0.051 | 1.21 ± 0.08 | 1.2 ± 0.051
IPSIPNPIANHTVTNSP [SNF5] | 2.46 ± 0.039 | 2.68 ± 0.036 | 2.45 ± 0.041 | 2.6 ± 0.027
NSESTTQGGNVNLDNTA [RPT5] | 3.53 ± 0.11 | 3.41 ± 0.12 | 3.27 ± 0.09 | 3.11 ± 0.087
AMHNSKAASSTRIFQAL [POP1] | 2.59 ± 0.093 | 2.54 ± 0.078 | 2.87 ± 0.14 | 2.89 ± 0.11
QSSEDVITIKSRIRVKI [RPB7] | 2.4 ± 0.11 | 2.41 ± 0.075 | 2.51 ± 0.078 | 3 ± 0.12
FQLLEPLSTYNKNGNAV [PGD1] | 2.81 ± 0.058 | 2.93 ± 0.057 | 2.77 ± 0.05 | 2.74 ± 0.036
KLLFQELMAMNITPRLY [RPB2] | 1.27 ± 0.1 | 1.39 ± 0.066 | 1.24 ± 0.13 | 1.43 ± 0.048
GLELSNFKSYRGVTKVG [SMC1] | 3.04 ± 0.094 | 3.09 ± 0.14 | 2.55 ± 0.15 | 2.45 ± 0.12
ANALGGLGVNRRILAAA [SSN3] | 1.77 ± 0.068 | 1.69 ± 0.069 | 1.58 ± 0.16 | 1.92 ± 0.046
KLTDEQSSLDVAGLEDK [SIR3] | 2.68 ± 0.083 | 2.85 ± 0.13 | 2.75 ± 0.083 | 3.1 ± 0.062
KSKKSWLNRLNNWLFGW [YMR153W/NUP53] | 2.81 ± 0.054 | 2.66 ± 0.046 | 2.51 ± 0.053 | 2.94 ± 0.041
MARTKQTARKSTGGKAP [HHT1] | 3.31 ± 0.12 | 3.25 ± 0.11 | 3.04 ± 0.1 | 3.39 ± 0.092
GDRGALARASGNYVIII [RPL2A] | 2.82 ± 0.11 | 2.81 ± 0.11 | 2.84 ± 0.11 | 2.75 ± 0.14
PLILTPPQLANQQQPPQ [SNF11] | 1.53 ± 0.066 | 1.93 ± 0.071 | 2.04 ± 0.093 | 2.15 ± 0.069
MSSVQSKILSQAPSELE [RPS7B] | 2.58 ± 0.08 | 2.72 ± 0.083 | 2.61 ± 0.098 | 2.04 ± 0.1
LFNNHLNGILADEMGLG [SNF2] | 2.83 ± 0.11 | 2.64 ± 0.1 | 3.28 ± 0.068 | 2.59 ± 0.092
GALPPDLSLIVKARHGG [CYT1] | 1.83 ± 0.23 | 1.97 ± 0.14 |  | 2.23 ± 0.17
CSRIIKIDKPIRTQVNT [RGR1] | 1.94 ± 0.067 | 2.31 ± 0.047 | 2.09 ± 0.059 | 2.1 ± 0.039
PSANNSSSIKSTGPTGA [RRP4] | 3.32 ± 0.038 | 3.28 ± 0.043 | 3.349 ± 0.029 | 3.348 ± 0.032
